The supplement of paper PMC5998384

Legend:
HeLa Kyoto [1] = experiment: solubility change mitosis vs G1/S (difference of NP-40 vs SDS log2 ratios) (log2 ratio difference); higher = more soluble in mitosis
HeLa Kyoto [2] = experiment: thermal stability score vs G1/S (z-score of summed log2 fold changes over temperatures); higher = more thermally stable than in G1/S
HeLa Kyoto [3] = experiment: melting temperature (median over replicates), in situ; higher = more thermally stable
HeLa Kyoto [4] = experiment: solubility in G1/S (NP-40 vs SDS abundance) (log2 ratio); higher = more soluble; settings: cell cycle stage: G1/S
[5] = cell cycle stage: early G1 (4.5 h after nocodazole release)
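Wherever melting temperature (median over replicates), in situ is given: HeLa Kyoto cells synchronized by double thymidine or nocodazole block, proteins quantified by TMT10plex mass spectrometry, three independent biological replicates.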
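Wherever solubility change mitosis vs G1/S (difference of NP-40 vs SDS log2 ratios) is given: synchronized HeLa Kyoto cells (double thymidine block for G1/S, nocodazole release for mitosis), protein amounts in NP-40 versus SDS lysates quantified by mass spectrometry, three biological replicates.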
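Wherever solubility in G1/S (NP-40 vs SDS abundance) is given: HeLa Kyoto cells arrested at G1/S by double thymidine block, proteins quantified by TMT10plex mass spectrometry in mild NP-40 versus SDS extracts, three biological replicates.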
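Wherever thermal stability score vs G1/S (z-score of summed log2 fold changes over temperatures) is given: synchronized HeLa Kyoto cells, proteins quantified by TMT10plex mass spectrometry, three biological replicates, mitosis taken 0.5 h after nocodazole release, G1/S directly after double thymidine block.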

Row | Sequence | solubility change mitosis (log2) (HeLa Kyoto [1]) | thermal stability score (HeLa Kyoto [2]; [5]) | thermal stability score (HeLa Kyoto [2]; cell cycle stage: mitosis) | melting temperature (HeLa Kyoto [3]; cell cycle stage: G1/S) [°C] | solubility in G1/S (log2) (HeLa Kyoto [4]) | melting temperature (HeLa Kyoto [3]; cell cycle stage: mitosis) [°C]
1 | MADLSLADALTEPSPDIEGEIKRDFIATLEAEAFDDVVGETVGKTDYIPLLDVDEKTGNSESKKKPCSETSQIEDTPSSKPTLLANGGHGVEGSDTTGSPTEFLEEKMAYQEYPNSQNWPEDTNFCFQPEQVVDPIQTDPFKMYHDDDLADLVFPSSATADTSIFAGQNDPLKDSYGMSPCNTAVVPQGWSVEALNSPHSESFVSPEAVAEPPQPTAVPLELAKEIEMASEERPPAQALEIMMGLKTTDMAPSKETEMALAKDMALATKTEVALAKDMESPTKLDVTLAKDMQPSMESDMALVKDMELPTEKEVALVKDVRWPTETDVSSAKNVVLPTETEVAPAKDVTLLKETERASPIKMDLAPSKDMGPPKENKKETERASPIKMDLAPSKDMGPPKENKIVPAKDLVLLSEIEVAQANDIISSTEISSAEKVALSSETEVALARDMTLPPETNVILTKDKALPLEAEVAPVKDMAQLPETEIAPAKDVAPSTVKEVGLLKDMSPLSETEMALGKDVTPPPETEVVLIKNVCLPPEMEVALTEDQVPALKTEAPLAKDGVLTLANNVTPAKDVPPLSETEATPVPIKDMEIAQTQKGISEDSHLESLQDVGQSAAPTFMISPETVTGTGKKCSLPAEEDSVLEKLGERKPCNSQPSELSSETSGIARPEEGRPVVSGTGNDITTPPNKELPPSPEKKTKPLATTQPAKTSTSKAKTQPTSLPKQPAPTTIGGLNKKPMSLASGLVPAAPPKRPAVASARPSILPSKDVKPKPIADAKAPEKRASPSKPASAPASRSGSKSTQTVAKTTTAAAVASTGPSSRSPSTLLPKKPTAIKTEGKPAEVKKMTAKSVPADLSRPKSTSTSSMKKTTTLSGTAPAAGVVPSRVKATPMPSRPSTTPFIDKKPTSAKPSSTTPRLSRLATNTSAPDLKNVRSKVGSTENIKHQPGGGRAKVEKKTEAAATTRKPESNAVTKTAGPIASAQKQPAGKVQIVSKKVSYSHIQSKCGSKDNIKHVPGGGNVQIQNKKVDISKVSSKCGSKANIKHKPGGGDVKIESQKLNFKEKAQAKVGSLDNVGHLPAGGAVKTEGGGSEAPLCPGPPAGEEPAISEAAPEAGAPTSASGLNGHPTLSGGGDQREAQTLDSQIQETSI [MAP4] | -0.0455 | -3.19 | -3.41 | 59 | 0.265 | 
2 | MADNEKLDNQRLKNFKNKGRDLETMRRQRNEVVVELRKNKRDEHLLKRRNVPHEDICEDSDIDGDYRVQNTSLEAIVQNASSDNQGIQLSAVQAARKLLSSDRNPPIDDLIKSGILPILVHCLERDDNPSLQFEAAWALTNIASGTSEQTQAVVQSNAVPLFLRLLHSPHQNVCEQAVWALGNIIGDGPQCRDYVISLGVVKPLLSFISPSIPITFLRNVTWVMVNLCRHKDPPPPMETIQEILPALCVLIHHTDVNILVDTVWALSYLTDAGNEQIQMVIDSGIVPHLVPLLSHQEVKVQTAALRAVGNIVTGTDEQTQVVLNCDALSHFPALLTHPKEKINKEAVWFLSNITAGNQQQVQAVIDANLVPMIIHLLDKGDFGTQKEAAWAISNLTISGRKDQVAYLIQQNVIPPFCNLLTVKDAQVVQVVLDGLSNILKMAEDEAETIGNLIEECGGLEKIEQLQNHENEDIYKLAYEIIDQFFSSDDIDEDPSLVPEAIQGGTFGFNSSANVPTEGFQF [KPNA4] | -0.0591 | -0.466 | -0.221 | 52.3 | 0.0932 | 51.9
3 | MADTQYILPNDIGVSSLDCREAFRLLSPTERLYAYHLSRAAWYGGLAVLLQTSPEAPYIYALLSRLFRAQDPDQLRQHALAEGLTEEEYQAFLVYAAGVYSNMGNYKSFGDTKFVPNLPKEKLERVILGSEAAQQHPEEVRGLWQTCGELMFSLEPRLRHLGLGKEGITTYFSGNCTMEDAKLAQDFLDSQNLSAYNTRLFKEVDGEGKPYYEVRLASVLGSEPSLDSEVTSKLKSYEFRGSPFQVTRGDYAPILQKVVEQLEKAKAYAANSHQGQMLAQYIESFTQGSIEAHKRGSRFWIQDKGPIVESYIGFIESYRDPFGSRGEFEGFVAVVNKAMSAKFERLVASAEQLLKELPWPPTFEKDKFLTPDFTSLDVLTFAGSGIPAGINIPNYDDLRQTEGFKNVSLGNVLAVAYATQREKLTFLEEDDKDLYILWKGPSFDVQVGLHELLGHGSGKLFVQDEKGAFNFDQETVINPETGEQIQSWYRSGETWDSKFSTIASSYEECRAESVGLYLCLHPQVLEIFGFEGADAEDVIYVNWLNMVRAGLLALEFYTPEAFNWRQAHMQARFVILRVLLEAGEGLVTITPTTGSDGRPDARVRLDRSKIRSVGKPALERFLRRLQVLKSTGDVAGGRALYEGYATVTDAPPECFLTLRDTVLLRKESRKLIVQPNTRLEGSDVQLLEYEASAAGLIRSFSERFPEDGPELEEILTQLATADARFWKGPSEAPSGQA [DPP3] | -0.14 | -0.363 | -1.69 | 53.8 | 0.153 | 53
4 | MADYSTVPPPSSGSAGGGGGGGGGGGVNDAFKDALQRARQIAAKIGGDAGTSLNSNDYGYGGQKRPLEDGDQPDAKKVAPQNDSFGTQLPPMHQQQSRSVMTEEYKVPDGMVGFIIGRGGEQISRIQQESGCKIQIAPDSGGLPERSCMLTGTPESVQSAKRLLDQIVEKGRPAPGFHHGDGPGNAVQEIMIPASKAGLVIGKGGETIKQLQERAGVKMVMIQDGPQNTGADKPLRITGDPYKVQQAKEMVLELIRDQGGFREVRNEYGSRIGGNEGIDVPIPRFAVGIVIGRNGEMIKKIQNDAGVRIQFKPDDGTTPERIAQITGPPDRCQHAAEIITDLLRSVQAGNPGGPGPGGRGRGRGQGNWNMGPPGGLQEFNFIVPTGKTGLIIGKGGETIKSISQQSGARIELQRNPPPNADPNMKLFTIRGTPQQIDYARQLIEEKIGGPVNPLGPPVPHGPHGVPGPHGPPGPPGPGTPMGPYNPAPYNPGPPGPAPHGPPAPYAPQGWGNAYPHWQQQAPPDPAKAGTDPNSAAWAAYYAHYYQQQAQPPPAAPAGAPTTTQTNGQGDQQNPAPAGQVDYTKAWEEYYKKMGQAVPAPTGAPPGGQPDYSAAWAEYYRQQAAYYAQTSPQGMPQHPPAPQGQ [FUBP1] | 0.0996 | -0.104 | -0.787 | 57 | 0.527 | 56.4
5 | MAEAEEQETGSLEESTDESEEEESEEEPKLKYERLSNGVTEILQKDAASCMTVHDKFLALGTHYGKVYLLDVQGNITQKFDVSPVKINQISLDESGEHMGVCSEDGKVQVFGLYSGEEFHETFDCPIKIIAVHPHFVRSSCKQFVTGGKKLLLFERSWMNRWKSAVLHEGEGNIRSVKWRGHLIAWANNMGVKIFDIISKQRITNVPRDDISLRPDMYPCSLCWKDNVTLIIGWGTSVKVCSVKERHASEMRDLPSRYVEIVSQFETEFYISGLAPLCDQLVVLSYVKEISEKTEREYCARPRLDIIQPLSETCEEISSDALTVRGFQENECRDYHLEYSEGESLFYIVSPRDVVVAKERDQDDHIDWLLEKKKYEEALMAAEISQKNIKRHKILDIGLAYINHLVERGDYDIAARKCQKILGKNAALWEYEVYKFKEIGQLKAISPYLPRGDPVLKPLIYEMILHEFLESDYEGFATLIREWPGDLYNNSVIVQAVRDHLKKDSQNKTLLKTLAELYTYDKNYGNALEIYLTLRHKDVFQLIHKHNLFSSIKDKIVLLMDFDSEKAVDMLLDNEDKISIKKVVEELEDRPELQHVYLHKLFKRDHHKGQRYHEKQISLYAEYDRPNLLPFLRDSTHCPLEKALEICQQRNFVEETVYLLSRMGNSRSALKMIMEELHDVDKAIEFAKEQDDGELWEDLILYSIDKPPFITGLLNNIGTHVDPILLIHRIKEGMEIPNLRDSLVKILQDYNLQILLREGCKKILVADSLSLLKKMHRTQMKGVLVDEENICESCLSPILPSDAAKPFSVVVFHCRHMFHKECLPMPSMNSAAQFCNICSAKNRGPGSAILEMKK [VPS41] | -0.131 | 0.549 | 0.342 | 50.2 | -0.0889 | 49.8
